Laboratory results: paper PMC9986870

Molecular target: Alexa Fluor 488 labeled α-synuclein (UniProt P37840)
Experiment: MST; apparent; constant 50 nM αS-AF488, dilution series of 16 HSA concentrations (50 μM to 6.25 nM); 10 mM Na2HPO4, 1.8 mM KH2PO4, 137 mM NaCl, 2.7 mM KCl, pH 7.4; Monolith NT.115, LED power 20%, MST power 20, 40 and 80%, data normalised and averaged

human serum albumin (from UniProt P02768 25-609) (natural protein)
Kd: 300 nM
